Assay results published in publication PMC7966745, “Elucidation of transient protein-protein interactions within carrier protein-dependent biosynthesis” (Communications Biology, 2021).

T1: TesA, E. coli thioesterase (E. coli, UniProt P0ADA1 27-208)
T1 construct: TesA thioesterase 1, E. coli; the natural protein is periplasmic; source: E. coli BL21 (DE3), purified (Ni-IMAC, Superdex 75)
T1 sequence: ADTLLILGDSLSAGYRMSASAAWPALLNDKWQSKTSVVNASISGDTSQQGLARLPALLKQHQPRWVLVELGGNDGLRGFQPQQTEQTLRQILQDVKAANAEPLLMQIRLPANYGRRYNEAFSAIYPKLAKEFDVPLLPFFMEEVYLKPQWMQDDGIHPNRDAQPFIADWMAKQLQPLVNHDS

T2: FabF, E. coli elongating ketosynthase (E. coli, UniProt P0AAI5 2-413)
T2 construct: ketosynthase FabF (3-oxoacyl-ACP synthase 2), E. coli; also called KS; source: E. coli BL21 (DE3), purified (Ni-IMAC, Superdex 75)
T2 sequence: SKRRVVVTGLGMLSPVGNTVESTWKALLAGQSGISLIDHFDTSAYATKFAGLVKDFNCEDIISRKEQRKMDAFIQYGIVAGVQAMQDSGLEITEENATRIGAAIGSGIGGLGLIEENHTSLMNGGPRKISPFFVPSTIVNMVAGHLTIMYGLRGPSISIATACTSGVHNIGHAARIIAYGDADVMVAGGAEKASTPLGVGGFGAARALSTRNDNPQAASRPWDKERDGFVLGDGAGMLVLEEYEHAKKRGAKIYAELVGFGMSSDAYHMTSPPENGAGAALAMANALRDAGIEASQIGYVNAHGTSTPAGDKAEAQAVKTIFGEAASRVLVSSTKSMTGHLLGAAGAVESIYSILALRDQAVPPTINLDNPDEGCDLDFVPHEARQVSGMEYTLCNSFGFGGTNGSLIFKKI

T3: TesA, E. coli thioesterase (E. coli, UniProt P0ADA1 27-208)
T3 construct: thioesterase TesA (thioesterase 1), E. coli; source: E. coli BL21 (DE3), purified (Ni-IMAC, Superdex 75)
T3 sequence: T1 sequence

B1: FabF, elongating ketosynthase of E. coli fatty acid biosynthesis (enzyme)
chain: T2 sequence
notes: FabF ketosynthase (3-oxoacyl-ACP synthase 2), E. coli; also called KS; source: E. coli BL21 (DE3), purified (Ni-IMAC, Superdex 75)
B2: octanoyl-AcpP (15N-C8-AcpP), E. coli acyl carrier protein (natural protein)
chain: STIEERVKKIIGEQLGVKQEEVTNNASFVEDLGADSLDTVELVMALEEEFDTEIPDEEAEKITTVQAAIDYINGHQA
modifications: octanoyl pantethenamide probe loaded as a 4'-phosphopantetheine analog (amide linked octanoyl) on S36; uniformly 15N labeled and perdeuterated
notes: Acyl carrier protein AcpP of E. coli; Grown on a His-tagged pET-22b vector; also called amide linked octanoyl AcpP; source: E. coli BL21 (DE3), M9 minimal media with 15N NH4Cl and D2O, purified; made apo with ACPH, then loaded with an octanoyl pantethenamide probe (CoaA, CoaD, CoaE, Sfp)
B3: octanoyl-AcpP (C8-AcpP), E. coli acyl carrier protein (natural protein)
chain: B2 chain
modifications: octanoyl pantethenamide probe loaded (stable C8 acyl analog); uniformly 15N labeled and perdeuterated
notes: acyl carrier protein AcpP, E. coli; PDB 2FAD is heptanoyl-AcpP, used for docking only; also called 15N-C8-AcpP; source: E. coli BL21 (DE3), M9 minimal media with 15N NH4Cl and D2O, purified; made apo with P. aeruginosa ACPH, then loaded with CoaA, CoaD, CoaE and Sfp
B4: FabI, enoylreductase of E. coli fatty acid biosynthesis (enzyme)
chain: MGFLSGKRILVTGVASKLSIAYGIAQAMHREGAELAFTYQNDKLKGRVEEFAAQLGSDIVLQCDVAEDASIDTMFAELGKVWPKFDGFVHSIGFAPGDQLDGDYVNAVTREGFKIAHDISSYSFVAMAKACRSMLNPGSALLTLSYLGAERAIPNYNVMGLAKASLEANVRYMANAMGPEGVRVNAISAGPIRTLAASGIKDFRKMLAHCEAVTPIRRTVTIEDVGNSAAFLCSDLSAGISGEVVHVDGGFSIAAMNELELK
notes: FabI enoyl-ACP reductase, E. coli; titrated with 0.5 mM NAD+ in the buffer; also called ER; source: E. coli BL21 (DE3), purified (Ni-IMAC, Superdex 75)
B5: FabI, E. coli enoylreductase (enzyme)
chain: B4 chain
notes: enoylreductase FabI (enoyl-ACP reductase [NADH]), E. coli; Titrated with 0.5 mM NAD+ present; also called ER; source: E. coli BL21 (DE3), purified (Ni-IMAC, Superdex 75)
B6: FabG, ketoreductase of E. coli fatty acid biosynthesis (enzyme)
chain: MNFEGKIALVTGASRGIGRAIAETLAARGAKVIGTATSENGAQAISDYLGANGKGLMLNVTDPASIESVLEKIRAEFGEVDILVNNAGITRDNLLMRMKDEEWNDIIETNLSSVFRLSKAVMRAMMKKRHGRIITIGSVVGTMGNGGQANYAAAKAGLIGFSKSLAREVASRGITVNVVAPGFIETDMTRALSDDQRAGILAQVPAGRLGGAQEIANAVAFLASDEAAYITGETLHVNGGMYMV
notes: FabG 3-oxoacyl-ACP reductase, E. coli; titrated with 0.5 mM NAD+ in the buffer; also called KR; source: E. coli BL21 (DE3), purified (Ni-IMAC, Superdex 75)
B7: FabG, E. coli ketoreductase (enzyme)
chain: B6 chain
notes: ketoreductase FabG (3-oxoacyl-ACP reductase), E. coli; Titrated with 0.5 mM NAD+ present; also called KR; source: E. coli BL21 (DE3), purified (Ni-IMAC, Superdex 75)

How the values were obtained:
FabB (Escherichia coli) = FabB (Escherichia coli) (UniProt P0A953); experiment: NMR titration (TITAN); conditions: cited from earlier work
[1] = target: B2; experiment: NMR titration; 1H-15N HSQC of perdeuterated 15N-C8-AcpP with increasing unlabeled partner protein, five points; TITAN 2D lineshape analysis, flexible stoichiometry model, error from 300 bootstrap steps; 37 °C, 10 mM potassium phosphate pH 7.4, 0.5 mM TCEP, 0.1% NaN3; conditions: both partners purified
[2] = target: T1, TesA, E. coli thioesterase; experiment: as above; conditions: both partners purified
[3] = target: B1; experiment: as above; conditions: both partners purified
[4] = target: B4; experiment: NMR titration; 1H-15N HSQC of perdeuterated 15N-C8-AcpP with increasing unlabeled partner protein, five points; TITAN 2D lineshape analysis, flexible stoichiometry model, error from 300 bootstrap steps; 37 °C, 10 mM potassium phosphate pH 7.4, 0.5 mM TCEP, 0.5 mM NAD+, 0.1% NaN3; conditions: both partners purified
[5] = target: B7; experiment: NMR titration; 1H-15N HSQC of 15N, perdeuterated C8-AcpP titrated with unlabeled partner, at least five points; 37 °C; 10 mM potassium phosphate pH 7.4, 0.5 mM TCEP, 0.5 mM NAD+, 0.1% NaN3; TITAN 2D lineshape analysis, flexible stoichiometry model; conditions: both partners purified
[6] = target: B5; experiment: as above; conditions: both partners purified
[7] = target: T2, FabF, E. coli elongating ketosynthase; experiment: NMR titration; 1H-15N HSQC of 15N, perdeuterated C8-AcpP titrated with unlabeled partner, at least five points; 37 °C; 10 mM potassium phosphate pH 7.4, 0.5 mM TCEP, 0.1% NaN3; TITAN 2D lineshape analysis, flexible stoichiometry model; conditions: both partners purified
[8] = target: T3, TesA, E. coli thioesterase; experiment: as above; conditions: both partners purified
[9] = target: B2; experiment: NMR titration; 1H-15N HSQC of perdeuterated 15N-C8-AcpP with increasing unlabeled partner protein, five points; TITAN 2D lineshape analysis, flexible stoichiometry model, error from 300 bootstrap steps; 37 °C, 10 mM potassium phosphate pH 7.4, 0.5 mM TCEP, 0.5 mM NAD+, 0.1% NaN3; conditions: both partners purified
[10] = target: B3; experiment: NMR titration; 1H-15N HSQC of 15N, perdeuterated C8-AcpP titrated with unlabeled partner, at least five points; 37 °C; 10 mM potassium phosphate pH 7.4, 0.5 mM TCEP, 0.5 mM NAD+, 0.1% NaN3; TITAN 2D lineshape analysis, flexible stoichiometry model; conditions: both partners purified

FabB (Escherichia coli), sequence (P0A953 whole entry): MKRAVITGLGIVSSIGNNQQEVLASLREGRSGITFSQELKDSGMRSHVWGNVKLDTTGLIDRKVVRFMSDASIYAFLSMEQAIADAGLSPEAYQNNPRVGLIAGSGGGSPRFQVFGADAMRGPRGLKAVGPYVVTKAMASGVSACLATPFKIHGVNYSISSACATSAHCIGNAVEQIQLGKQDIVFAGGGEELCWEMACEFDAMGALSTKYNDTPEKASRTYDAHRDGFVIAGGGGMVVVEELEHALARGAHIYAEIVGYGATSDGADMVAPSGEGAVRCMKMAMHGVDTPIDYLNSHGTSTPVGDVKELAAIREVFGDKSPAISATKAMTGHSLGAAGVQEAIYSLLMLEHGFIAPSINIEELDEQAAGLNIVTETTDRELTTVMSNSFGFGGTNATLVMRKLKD

AcpP (from UniProt P0A6A8)
Kd (FabB (Escherichia coli)): 37.6 µM

B1
stoichiometry N [1]: 1.3

B2
Kd [2]: 13 µM | koff [2]: 9750 s⁻¹ | Kd [3]: 6.9 µM | koff [3]: 3350 s⁻¹ | Kd [4]: 1.6 µM | koff [4]: 6360 s⁻¹

B3
Kd [5]: 52.3 µM | koff [5]: 3560 s⁻¹ | Kd [6]: 1.7 µM | koff [6]: 8500 s⁻¹ | Kd [7]: 8.3 µM | koff [7]: 3510 s⁻¹ | Kd [8]: 12.5 µM | koff [8]: 9720 s⁻¹

B4
stoichiometry N [9]: 1.2

B5
stoichiometry N [10]: ~1

B6
stoichiometry N [9]: 2.2

B7
stoichiometry N [10]: 2
